To fix the notation:
T1: IL-22R-Fc/IL-10R2-Fc heterodimer from co-expressing CHO cells (human, UniProt Q8N6P7 16-228; Q08334 20-220)
T1 construct: extracellular domain; also called IL-22R/IL-10R2-Fc heterodimer; IL-22R-Fc/IL-10R2-Fc complex; not shown: human IgG1 Fc
T1 sequence 1: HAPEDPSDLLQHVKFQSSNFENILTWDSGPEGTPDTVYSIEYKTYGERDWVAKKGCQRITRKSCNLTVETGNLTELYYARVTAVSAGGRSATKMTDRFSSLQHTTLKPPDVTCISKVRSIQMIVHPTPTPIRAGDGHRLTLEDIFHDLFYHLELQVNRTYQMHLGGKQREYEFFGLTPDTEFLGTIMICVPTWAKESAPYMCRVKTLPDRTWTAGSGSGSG
T1 sequence 2: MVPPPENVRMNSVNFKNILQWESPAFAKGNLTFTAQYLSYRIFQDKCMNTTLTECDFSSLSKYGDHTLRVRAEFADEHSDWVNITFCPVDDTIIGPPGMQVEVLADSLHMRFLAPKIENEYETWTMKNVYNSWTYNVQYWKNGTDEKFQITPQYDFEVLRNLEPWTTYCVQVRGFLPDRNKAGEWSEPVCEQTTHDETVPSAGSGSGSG

B1: biotinylated N terminal His/Flag tagged human IL-22 (ligand)
chain: GSGHHHHHHGSGDYKDDDDKAPISSHCRLDKSNFQQPYITNRTFMLAKEASLADNNTDVRLIGEKLFHGVSMSERCYLMKQVLNFTLEEVLFPQSDRFQPYMQEVVPFLARLSNRLSTCHIEGDDLHIQRNVQKLKDTVKKLGESGEIKAIGELDLLFMSLRNACI
modifications: biotinylated with EZ-Link Sulfo-NHS-Biotin (sites not given)
notes: also called bio-IL-22; biotinylated IL-22
B2: human IL-22R extracellular domain-Fc fusion homodimer (Fc fusion)
chain: T1 sequence 1
notes: extracellular domain; Used as CHO conditioned medium, not purified; also called IL-22R-Fc; IL-22RECD-Fc; not shown: human IgG1 Fc
B3: human IL-22 binding protein-Fc fusion (Fc fusion)
chain: TQSTHESLKPQRVQFQSRNFHNILQWQPGRALTGNSSVYFVQYKIYGQRQWKNKEDCWGTQELSCDLTSETSDIQEPYYGRVRAASAGSYSEWSMTPRFTPWWETKIDPPVMNITQVNGSLLVILHAPNLPYRYQKEKNVSIEDYYELLYRVFIINNSLEKEQKVYEGAHRAVEIEALTPHSSYCVVAEIYQPMLDRRSQRSEERCVEIPAGSGSGSG
notes: Fc fusion homodimer, used as CHO conditioned medium; also called IL-22BP-Fc; huIL22BP-huFc; not shown: human IgG1 Fc

Assay [1] deals with B2. Kind of assay: ELISA, IL-22R-Fc captured on anti-human IgG, bio-IL-22 titrated (FIG. 6A). How it is done:
(§1) After a final set of washes, 100 μl of TMB Microwell peroxidase substrate (BioFX, Owings Mills, Md.) was added for 20 minutes and the reaction stopped with 100 μl 2N H₂SO₄. Colorimetric detection of the peroxidase product was done at 450 nm in a Molecular Devices (Sunnyvale, Calif.) microplate reader.
FIG. 6B depicts the results form an ELISA assay performed in the opposite format, whereby 100 µl of 1 µg/ml biotinylated IL-22 was added to Reacti-Bind 96 well streptavidin-coated plates (Pierce, Rockford, Ill.) for one hour. After washing, Fc fusion receptor was added at various concentrations to the plates for one hour, washed and then detected with goat anti-human IgG-HRP. In FIG. 6A, fifty ng/ml of total Fc in conditioned media (CM) from CHO cells expressing either IL-22R-Fc (▪) or IL-10R2-Fc (O) was captured onto anti-human IgG coated wells. Biotinylated IL-22 (bio-IL-22) at various concentrations was then added to the wells. Bound bio-IL-22 was subsequently detected using streptavidin-HRP. In FIG. 6B, bio-IL-22 (1 μg/ml) was captured onto streptavidin plates. […] Bound receptor Fc was subsequently detected using goat anti-human IgG-HRP.
IL-22 binding to the extracellular domain (ECD) of IL-22R and IL-10R2 was evaluated using two ELISA formats. […] Biotinylated IL-22 was then added and detected with streptavidin-HRP. […] Receptor-Fc were then added and detected with HRP-conjugated, anti-hIgG.
For orientation: In an ELISA, binding on a coated surface is turned into a signal by an enzyme label.

For assay [2], the target named is T1, IL-22R-Fc/IL-10R2-Fc heterodimer from …. Kind of assay: ELISA, 50 ng/ml total Fc from co-expressing CHO captured on anti-human IgG, bio-IL-22 titrated (FIG. 8A). How it is done: The results shown in FIGS. 6A, 8A-8B, 9A-9B, 10B-10C and 11A-11C were obtained from ELISA assays where receptor Fc from CHO CM were first immobilized via an anti-hIgG coat. Flat bottom, 96-well ELISA plates (Costar, Cambridge, Mass.) were coated overnight at 4° C. with 100 μl goat anti-human IgG antibody (Southern Biotech Associates, Inc., Birmingham, Ala.) at 1 μg/ml in 0.1 M sodium carbonate buffer (pH 9.6). The plates were washed twice with 200 pi phosphate-buffered saline containing 0.05% Tween 20 (PBS-T), blocked with 100 μl 1% BSA (Sigma, St. Louis, Mo.) in PBS-T for 1 hour and washed three times. Following by one hour sequential incubations (100 ul), each separated by three washes, were then employed: a given receptor fusion(s) at a fixed concentration or serially diluted, biotinylated IL-22 (bio-IL-22) at a fixed concentration or serially diluted, and then 1/10,000 dilution of streptavidin-horse radish peroxidase (HRP) (Southern Biotech Associates, Inc., Birmingham, Ala.). […] Colorimetric detection of the peroxidase product was done at 450 nm in a Molecular Devices (Sunnyvale, Calif.) microplate reader.
IL-22 binding to the ECD of IL-22R and IL-10R2 secreted as Fc heterodimer was then evaluated. […] The ability of cytokine to bind was then evaluated using various concentrations of bio-IL-22 as the detector (FIG. 8A). […]

Assay [3] concerns the target B1. Kind of assay: ELISA, bio-IL-22 on streptavidin plates, IL-22R-Fc titrated (FIG. 6B). On the procedure:
FIG. 6B depicts the results form an ELISA assay performed in the opposite format, whereby 100 µl of 1 µg/ml biotinylated IL-22 was added to Reacti-Bind 96 well streptavidin-coated plates (Pierce, Rockford, Ill.) for one hour. After washing, Fc fusion receptor was added at various concentrations to the plates for one hour, washed and then detected with goat anti-human IgG-HRP. In FIG. 6A, fifty ng/ml of total Fc in conditioned media (CM) from CHO cells expressing either IL-22R-Fc (▪) or IL-10R2-Fc (O) was captured onto anti-human IgG coated wells. Biotinylated IL-22 (bio-IL-22) at various concentrations was then added to the wells. Bound bio-IL-22 was subsequently detected using streptavidin-HRP. In FIG. 6B, bio-IL-22 (1 μg/ml) was captured onto streptavidin plates. Various concentrations of either IL-22R-Fc (▪) or IL-10R2-Fc (O) in diluted CHO. CM was then added to the wells. Bound receptor Fc was subsequently detected using goat anti-human IgG-HRP.
IL-22 binding to the extracellular domain (ECD) of IL-22R and IL-10R2 was evaluated using two ELISA formats. In the first version, receptor-Fc fusion proteins were immobilized via the Fc domain on anti-human IgG coated plates. Biotinylated IL-22 was then added and detected with streptavidin-HRP. […] Receptor-Fc were then added and detected with HRP-conjugated, anti-hIgG.

The target of assay [4] is B1. The assay is described as follows: competition ELISA (printed as ND50): IL-22BP-Fc pre-incubated with bio-IL-22 30 ng/ml, binding to captured IL-22R-Fc; IL-22R-Fc homodimer immobilized (FIG. 11A). How it is done: as §1
(§2) For certain ELISA assays of the above format where both the receptor Fc and bio-IL-22 are at a fixed concentration, IL-10R2-Fc was added at various concentrations either before or with bio-IL-22 (FIG. 9A) or after the bio-IL-22 (FIG. 9B). For other ELISA assays of the above format where the indicated receptor Fc and bio-IL-22 are also at a fixed concentration, antibodies (FIG. 10B-10C., 11C) or IL-22BP (FIG. 11A-11B) were added at various concentrations after a pre-incubation with the bio-IL-22 for 30 minutes. For ELISA assays in which the recruitment of IL-10R2-Fc to the IL-22/IL-22R complex was detected directly (data not shown, experimental design of FIG. 9A), non-biotinylated IL-22 was added to the ELISA and either polyclonal goat anti-hIL-10R2 or a mouse monoclonal anti-hIL-10R2 (R&D Systems, Inc, Minneapolis, Minn.) was used as detector.
(§3) IL-22 binding protein (IL-22BP) is a soluble ‘receptor’ for IL-22 that has low homology to the extracellular domain of IL-22R. […]

Assay [5] addresses B1. Kind of assay: blocking ELISA: IL-22BP-Fc pre-incubated 30 min with bio-IL-22 (30 ng/ml), added to 50 ng/ml IL-22R-Fc captured on anti-human IgG wells; bound bio-IL-22 read with streptavidin-HRP, A450; blocked partner IL-22R-Fc. How it is done:
as §1, §2, §3

In assay [6] the target is B1. Kind of assay: competition ELISA (printed as ND50): IL-22BP-Fc pre-incubated with bio-IL-22 5 ng/ml, binding to captured IL-22R/IL-10R2-Fc heterodimer (FIG. 11B by its legend); IL-22R/IL-10R2-Fc heterodimer immobilized (FIG. 11B; printed as FIG. 6B). How it is done: Colorimetric detection of the peroxidase product was done at 450 nm in a Molecular Devices (Sunnyvale, Calif.) microplate reader.
as §2
IL-22 binding protein (IL-22BP) is a soluble ‘receptor’ for IL-22 that has low homology to the extracellular domain of IL-22R. It neutralizes signal transduction mediated by IL-22 (Dumoutier, L. et al. (2001) J Immunol 166(12):7090-5; Kotenko, S. V. et al. (2001) J Immunol 166(12):7096-103; Xu, W. et al. (2001) Proc Natl Acad Sci USA 98(17):9511-6; Wei C-C et al. (2003) Genes & Immunity 4:204-21117). […]

The target in assay [7] is B1. Kind of assay: blocking ELISA: IL-22BP-Fc pre-incubated 30 min with bio-IL-22 (5 ng/ml), added to 50 ng/ml total Fc of co-expressed IL-22R-Fc/IL-10R2-Fc captured on anti-human IgG wells; bound bio-IL-22 read with streptavidin-HRP, A450; blocked partner IL-22R-Fc/IL-10R2-Fc. How it is done:
as §1, §2, §3

In general, EC50 refers to the concentration at which the effect is half-maximal. Higher therefore signals weaker potency. Broadly, the IC50 is the concentration that inhibits the measured activity by half.

On to B1, for which, in assay [1], a half-maximal effect (EC50) was put at 0.02 µg/mL. In addition, the “fold less bio-IL-22 needed for a comparable signal than with immobilized IL-22R-Fc homodimer” value in assay [2] was found to be 8 fold.
On to B2, for which the EC50 in assay [3] was 0.006 µg/mL.
Regarding B3, the IC50 worked out at 4 nM in assay [4] and 2 nM in assay [6]. Further, the “IC50 (read off the curve)” value in assay [5] is roughly 0.5 nM; in assay [7], roughly 0.2 nM.

Values taken from patent US20050042220A1 (GENETICS INSTITUTE, published 2005).
